Assays:
3H-cholesterol = 3H-cholesterol binding to recombinant GST-tagged protein; GST-Myd88 recovered and radioactivity measured; conditions: 3H-cholesterol 10 μM; n = 3; mean ± SD; parent: est. 3900; read off a plot
Myd88 CRAC domain = molecular target: T1, Myd88 CRAC domain (Mus musculus, UniProt P22366); test: NBD-cholesterol fluorescence binding assay; conditions: labelled compound; paper words the KD as that of cholesterol; NBD position (22- or 25-) not told
T1 construct: CRAC-A Tyr187, CRAC-B Tyr227
T1 sequence (P22366 whole entry, the tested form may be a part): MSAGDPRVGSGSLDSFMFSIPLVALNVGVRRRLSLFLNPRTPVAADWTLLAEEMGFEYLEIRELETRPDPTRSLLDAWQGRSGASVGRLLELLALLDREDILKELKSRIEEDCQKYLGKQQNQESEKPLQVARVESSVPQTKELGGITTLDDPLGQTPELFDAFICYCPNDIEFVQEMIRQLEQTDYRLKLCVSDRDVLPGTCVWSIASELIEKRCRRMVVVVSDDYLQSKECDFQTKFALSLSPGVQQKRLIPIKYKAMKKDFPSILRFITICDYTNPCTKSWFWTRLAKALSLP

“GST-tagged mouse Myd88 (from UniProt P22366) Y227F” showed a response (3H-cholesterol) of 1900 CPM.
For `C[C@H](CNc1ccc([N+](=O)[O-])c2nonc12)[C@H]1CC[C@H]2[C@@H]3CC=C4C[C@@H](O)CC[C@]4(C)[C@H]3CC[C@]12C` [NBD-cholesterol], the Kd (Myd88 CRAC domain) was 14.1 µM.
